Measured values: publication PMC6520365, “Structural and functional characterization of the PDZ domain of the human phosphatase PTPN3 and its interaction with the human papillomavirus E6 oncoprotein” (Scientific Reports, 2019)

Columns and labels:
[1] = biological target: PDZ domain of the human protein tyrosine phosphatase non-receptor type 3 (PTPN3-PDZ) (human) (UniProt P26045); experiment: AUC; sedimentation velocity, PTPN3-PDZ alone at 25 μM, 20 °C, 42000 rpm; monomer and dimer peaks
p38γ PBM (Homo sapiens) = details: cited from earlier work

Chain of PTPN4 PDZ (P29074 514-592): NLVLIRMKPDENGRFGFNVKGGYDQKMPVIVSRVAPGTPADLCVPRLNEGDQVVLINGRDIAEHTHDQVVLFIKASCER

stoichiometry N [1] | Substance | Kd (p38γ PBM (Homo sapiens)) [nM]
2 | PDZ domain of the human protein tyrosine phosphatase non-receptor type 3 (PTPN3-PDZ) (from UniProt P26045-1 504-913) (domain or fragment) | 
 | PTPN4 PDZ (from UniProt P29074) | 1600
